Positions count from the first letter of the chain named. Each block holds one binder with its values, some of them ahead of it.
Molecular target: T1, Recombinant NT antigen (N-terminal pro-brain natriuretic peptide, NT-proBNP) (human, UniProt P16860 27-102)
T1 construct: domain: N-terminal pro-brain natriuretic peptide (NT-proBNP); also called recombinant NT protein; N-terminal pro-B-type natriuretic peptide
T1 sequence (looked up): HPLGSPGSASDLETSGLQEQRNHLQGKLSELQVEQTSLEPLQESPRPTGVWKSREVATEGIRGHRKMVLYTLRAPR
Assay: indirect ELISA, KD calculated from half-max OD at 4 coating concentrations
How it was run: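 Plates coated overnight at 4 °C with recombinant NT antigen at 3, 1.5, 0.75 or 0.375 μg/ml, blocked with 20% BSA. Antibody, 2-fold dilutions from 1000 to 0.977 ng/ml, was incubated 30 min at 37 °C, then detected with HRP anti-IgG, OD450/630. KD was derived from half-max OD across coating levels.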

Kd: 3.47 nM
B1: Mutation 1-40 (antibody, V domains shown)
VH: QVRLQESGPSQVKPAQTLSLTCAISGFSLTTYYLDWVRHTPGKPPEWLAQMTKDGNAVHQPTVRSRLSITRDTSKSQVFLKLTGVTTEDTAVYYCVRGVIDWGPGLLVTVSS
VL: QAVLTQPSSVSRSLGQTVSITCSGSSDNVGFGDYLNWFQLIPGSAPKTLIFGAYSRLRGVPDRFSGSRSGNTATLTINSLQAEDEADYYCGSPNSRNYVFGSGTRLTVLS

Kd: 3.49 nM
B2: Mutation 1-46 (antibody, V domains shown)
VH: B1 VH with L29I, Q60N, V63I
VL: QAVLTQPSSVSRSLGQTVSITCSGSSDQVGFGDYLNWFQLIPGSAPKTLIFGASSRLRGVPDRFSGSRSGNTATLTINSLQAEDEADYYCGSPNSRGGYVFGSGTRLTVLS

Kd: 2.82 nM
B3: Mutation 1-41 (antibody, V domains shown)
VH: B1 VH with L29V, L34I, Q60N, V99I
VL: B1 VL with L35I, L57V, P93G

Kd: 2.02 nM
B4: Mutation 1-48 (antibody, V domains shown)
VH: B1 VH with L34I, V63I, V99I
VL: B2 VL with L35V, S54T, L57I

Kd: 2.16 nM
B5: Mutation 1-50 (antibody, V domains shown)
VH: B1 VH with L34V, V63L, V99L
VL: B2 VL with L35I, S54T, L57V, P93A

Kd: 1.26 nM
B6: Mutation 1-44 (antibody, V domains shown)
VH: B1 VH with L29V, L34V, Q60N, V63L, V99L
VL: B1 VL with L35V, Y54S, L57V, P93A

Kd: 2.93 nM
B7: Mutation 1-43 (antibody)
heavy: QVRLQESGPSQVKPAQTLSLTCAISGFSVTTYYLDWVRHTPGKPPEWLAQMTKDGNAVHQPTVRSRLSITRDTSKSQVFLKLTGVTTEDTAVYYCVRGIIDFGPGLLVTVSSASTTPPKVYPLTSCCGDTSSSIVTLGCLVSSYMPEPVTVTWNSGALTSGVHTFPAILQSSGLYSLSSVVTVPASTSGAQTFICNVAHPASSTKVDKRVEPGCPDPCKHCRCPPPELPGGPSVFIFPPKPKDTLTISGTPEVTCVVVDVGQDDPEVQFSWFVDNVEVRTARTKPREEQFNSTFRVVSALPIQHQDWTGGKEFKCKVHNEGLPAPIVRTISRTKGQAREPQVYVLAPPQEELSKSTLSVTCLVTGFYPDYIAVEWQKNGQPESEDKYGTTTSQLDADGSYFLYSRLRVDKNSWQEGDTYACVVMHEALHNHYTQKSISKPPGK
light: QAVLTQPSSVSRSLGQTVSITCSGSSDNVGFGDYLNWFQLIPGSAPKTLIFGASSRLRGVPDRFSGSRSGNTATLTINSLQAEDEADYYCGSANSRGGYVFGSGTRLTVLSQPKSAPSVTLFPPSKEELDTNKATVVCLISDFYPGSVNVVWKADGSTINQNVKTTQASKQSNSKYAASSYLTLTGSEWKSKSSYTCEVTHEGSTVTKTVKPSECS

Kd: 2.79 nM
B8: Mutation 1-47 (antibody)
heavy: B7 heavy with V29I, L34V, V63I, I99V
light: QAVLTQPSSVSRSLGQTVSITCSGSSDQVGFGDYVNWFQLIPGSAPKTLIFGASSRVRGVPDRFSGSRSGNTATLTINSLQAEDEADYYCGSPNSRNYVFGSGTRLTVLSQPKSAPSVTLFPPSKEELDTNKATVVCLISDFYPGSVNVVWKADGSTINQNVKTTQASKQSNSKYAASSYLTLTGSEWKSKSSYTCEVTHEGSTVTKTVKPSECS

Kd: 2.06 nM
B9: Mutation 1-53 (antibody)
heavy: B7 heavy with L34V, Q60N, I99V
light: B8 light with Q28N, V35I, S54Y, P93G

Kd: 1.53 nM
B10: Mutation 1-45 (antibody)
heavy: B7 heavy with V29I, L34I, V63L, I99L
light: B7 light with N28Q, L35I, L57I, A93P

From patent publication US20220025008A1 (FAPON BIOTECH, published 2022)
